Experimental data published in publication PMC11173989.

Molecular target: tKeima (tetrameric large Stokes shift red fluorescent protein Keima) (Montipora sp.)
Assay: SEC; gel filtration on Sephacryl S-100, 10 mM Tris-HCl (pH 8.0), 200 mM NaCl

In the case of “tKeima (tetrameric large Stokes shift red fluorescent protein Keima)”, the stoichiometry N is reported as 4.
